Molecular target: Paracoccus denitrificans FnrP (Paracoccus denitrificans)
Assay: SEC; analytical gel filtration under anaerobic conditions, calibrated Sephacryl S-100HR 16/50, assay buffer (25 mM HEPES, 2.5 mM CaCl2, 100 mM NaCl, 100 mM NaNO3, pH 7.5), 1 ml/min; reconstituted [4Fe–4S] FnrP (~90 % loaded) loaded at ~28 μM [4Fe–4S], in the absence of O2

In the case of “Paracoccus denitrificans FnrP (natural protein)”, the stoichiometry N is reported as 2.

Source: paper PMC4771820
